Columns and labels:
[1] = Secondary structure by Fourier Transform Infrared Spectroscopy (FTIR); format: physicochemical; details: for alpha helix percent 1657 cm^-1 / beta sheet character percent 1624 + 1696 cm^-1: Samples 1-5 before and 1A-5A after base excursion pH 12.3, Table 2; for 1624 + 1696 cm^-1 total beta sheet, % / 1657 cm^-1 Alpha helix, %: purified, lyophilized batches, Table 1; for percent alpha helix content / percent beta sheet content: Table 3, pH 10.5 excursion experiment
Experimental: Four different batches of purified, lyophilized Val-8 GLP-1(7-37)OH were analyzed for secondary structure characteristics by Fourier Transform Infra-red Spectroscopy (FTIR) to assess alpha helix and beta sheet content of the preparations. Deconvolution was done on the Amide I region (1750-1600 cm^−1) using BioRad Win-IR Pro Software version 2.5. The results are shown below in the Table 1:
Each of Samples 1-5 was measured for secondary structure characteristics by Fourier Transform Infrared Spectroscopy (FTIR). In addition, each Sample 1-5 was placed into 20 mM phosphate solution (pH 7.2) and the pH raised to 12.3 by addition of 1N sodium hydroxide for no more than 3 minutes. All samples then dissolved and the solutions became clear. The pH of each solution was then adjusted to 7.0 by addition of 1N hydrochloric acid. Samples 1A-5A, obtained from Samples 1-5, respectively, were then obtained by lyophilization of the solutions and dried in vacuo. The secondary structural characteristics of Samples 1A-5A were assessed by FTIR. The results of the FTIR analysis of Samples 1-5 and 1A-5A are shown below in Table 2:
In another example of the effects of base excursion on secondary structure, a purified, lyophilized sample of Val^8-GLP-1(7-37)OH purified by reversed chromatography was either lyophilized (0.1 gram) or precipitated by addition of sufficient 3.0 M sodium dihydrogen phosphate (pH 3.80) to result in a 0.6 M phosphate solution. The resultant precipitate was washed with 10 mM sodium acetate at pH 5.5 and the washed precipitate was dried in vacuo. A second portion of the washed precipitate was solubilized by raising the pH of the material to 10.5 for 30 minutes at room temperature by addition of 1N sodium hydroxide. The pH of that solution was then reduced to 7.0 by addition of 1.0 N hydrochloric acid and the solution was then lyophilized. The secondary structure of the three samples was determined by FTIR.

physchem = format: physicochemical
Experimental: Val^8-GLP-1(7-37)OH (1 gram) lyophilized powder was dissolved in 25 mM ammonium bicarbonate, pH 8.0 (100 ml). The solution was stirred with a TEFLON stir bar at about 200 rpm at 21° C. (ambient temperature) for 16 hours. At varying times, usually within 30 minutes, the solution became hazy. On continued stirring, the haze became visibly more dense. The kinetics of the turbidity were measured by rate of formation of turbidity, i.e. absorbance at 340 nm. The precipitated protein was harvested either by filtration, e.g. Whatman 1 filter disc, or centrifugation. The supernatant was assayed for protein content either by Biuret Colorimetric Assay obtained from Pierce (Rockford, Ill.) or UV absorbance at 280 nm. By either method, the protein precipitate constituted in excess of 90% of the starting material, i.e. there was less than 10% of the protein remaining in the supernatant fraction. The collected precipitate was dried in vacuo, i.e. in a lyophilizer. The resultant precipitated (0.96 grams) material was soluble in 20 mM phosphate at pH 7.2 at less than 0.01 mg/ml. Solubility was tested by suspension of the solid in the buffer, adjustment of pH, if necessary, and filtration through a 0.2 micron filter. The protein content of the filtrate was tested by either Biuret Colorimetric Assay, UV absorbance at 280 nm, or by high pressure liquid chromatography analysis (HPLC) analysis. […]

Row | Molecule | alpha helix percent 1657 cm^-1 [1] | beta sheet character percent 1624 + 1696 cm^-1 [1] | 1624 + 1696 cm^-1 total beta sheet, % [1] | 1657 cm^-1 Alpha helix, % [1] | further results
1 | 5A: Sample 5 after pH 12.3 excursion, neutralized to 7.0 and lyophilized [Sample 5A] | 90.6% | none observed | – | – | –
2 | Sample 3: gelled Val^8-GLP-1(7-37)OH from acetic acid/25% acetonitrile incubated at 4 C for 3.1 months | 25.5% | 70.0% | 30.6% | 63.6% | –
3 | 2A: Sample 2 after pH 12.3 excursion, neutralized to 7.0 and lyophilized [Sample 2A] | 85.9% | none observed | – | – | –
4 | Sample 4: soluble fraction of Val^8-GLP-1(7-37)OH stirred in 10 mM phosphate pH 7.2 | 75.8% | 14.7% | 28.9% | 63.6% | –
5 | Sample 5: precipitated fraction of Val^8-GLP-1(7-37)OH stirred in 10 mM phosphate pH 7.2 | 12.9% | 57.3% | – | – | –
6 | Sample 1: Val^8-GLP-1(7-37)OH isoelectric precipitate at pH 5.5 from 10 mM acetic acid | 24.9% | 69.8% | 31.4% | 62.7% | –
7 | Phosphate precipitate: Val^8-GLP-1(7-37)OH precipitated in 0.6 M phosphate, washed and dried in vacuo | – | – | – | – | percent alpha helix content [1]: 57%; percent beta sheet content [1]: 35%
8 | 3A: Sample 3 after pH 12.3 excursion, neutralized to 7.0 and lyophilized [Sample 3A] | 62.2% | 23.7% | – | – | –
9 | Sample 2: Val^8-GLP-1(7-37)OH isoelectric precipitate approaching pH 5.5 from the alkaline side | 51.9% | 40.5% | 29.3% | 62.8% | –
10 | Lyophilized mainstream: Val^8-GLP-1(7-37)OH purified by reversed chromatography and lyophilized | – | – | – | – | percent alpha helix content [1]: 71%; percent beta sheet content [1]: 16%
11 | 4A: Sample 4 after pH 12.3 excursion, neutralized to 7.0 and lyophilized [Sample 4A] | 86.0% | none observed | – | – | –
12 | pH 10.5 excursion: washed phosphate precipitate solubilized at pH 10.5 for 30 minutes, reduced to pH 7.0, lyophilized | – | – | – | – | percent alpha helix content [1]: 71%; percent beta sheet content [1]: 13%
13 | CC[C@H](C)[C@H](NC(=O)[C@H](Cc1ccccc1)NC(=O)[C@H](CCC(=O)O)NC(=O)[C@H](CCCCN)NC(=O)[C@H](C)NC(=O)[C@H](C)NC(=O)[C@H](CCC(N)=O)NC(=O)CNC(=O)[C@H](CCC(=O)O)NC(=O)[C@H](CC(C)C)NC(=O)[C@H](Cc1ccc(O)cc1)NC(=O)[C@H](CO)NC(=O)[C@H](CO)NC(=O)[C@@H](NC(=O)[C@H](CC(=O)O)NC(=O)[C@H](CO)NC(=O)[C@@H](NC(=O)[C@H](Cc1ccccc1)NC(=O)[C@@H](NC(=O)CNC(=O)[C@H](CCC(=O)O)NC(=O)[C@H](C)NC(=O)[C@@H](N)Cc1c[nH]cn1)[C@@H](C)O)[C@@H](C)O)C(C)C)C(=O)N[C@@H](C)C(=O)N[C@@H](Cc1c[nH]c2ccccc12)C(=O)N[C@@H](CC(C)C)C(=O)N[C@H](C(=O)N[C@@H](CCCCN)C(=O)NCC(=O)N[C@@H](CCCN=C(N)N)C(=O)NCC(=O)O)C(C)C [GLP-1(7-37)OH] | – | – | – | – | solubility thermodynamic (physchem; solubility): < 100 µg/mL; solubility thermodynamic (physchem; solubility (usually)): < 50 µg/mL
